From patent US20170281788A1

Target: insulin receptor (IR-B) (UniProt P06213)
Test: cell-based or functional assay

Substance: CIU-033 (from UniProt P09681 52-93) (ligand; B1 amine-CH2CH2CH2-S-S-Cys of incretin; X=Aib)
- Normalized IR-B EC50: 0.988 nM
